Measurements: IntAct's records for PubMed 20639876

B1: Myeloid differentiation primary response protein MyD88 (Mus musculus), P22366 (parent)
chain: MSAGDPRVGSGSLDSFMFSIPLVALNVGVRRRLSLFLNPRTPVAADWTLLAEEMGFEYLEIRELETRPDPTRSLLDAWQGRSGASVGRLLELLALLDREDILKELKSRIEEDCQKYLGKQQNQESEKPLQVARVESSVPQTKELGGITTLDDPLGQTPELFDAFICYCPNDIEFVQEMIRQLEQTDYRLKLCVSDRDVLPGTCVWSIASELIEKRCRRMVVVVSDDYLQSKECDFQTKFALSLSPGVQQKRLIPIKYKAMKKDFPSILRFITICDYTNPCTKSWFWTRLAKALSLP
B2: TIR domain-containing adapter molecule 1 (Mus musculus), Q80UF7 (parent)
chain: MDNPGPSLRGAFGILGALERDRLTHLKHKLGSLCSGSQESKLLHAMVLLALGQDTEARVSLESLKMNTVAQLVAHQWADMETTEGPEEPPDLSWTVARLYHLLAEENLCPASTRDMAYQVALRDFASQGDHQLGQLQNEAWDRCSSDIKGDPSGFQPLHSHQGSLQPPSASPAVTRSQPRPIDTPDWSWGHTLHSTNSTASLASHLEISQSPTLAFLSSHHGTHGPSKLCNTPLDTQEPQLVPEGCQEPEEISWPPSVETSVSLGLPHEISVPEVSPEEASPILPDALAAPDTSVHCPIECTELSTNSRSPLTSTTESVGKQWPITSQRSPQVPVGDDSLQNTTSSSPPAQPPSLQASPKLPPSPLSSASSPSSYPAPPTSTSPVLDHSETSDQKFYNFVVIHARADEQVALRIREKLETLGVPDGATFCEEFQVPGRGELHCLQDAIDHSGFTILLLTASFDCSLSLHQINHALMNSLTQSGRQDCVIPLLPLECSQAQLSPDTTRLLHSIVWLDEHSPIFARKVANTFKTQKLQAQRVRWKKAQEARTLKEQSIQLEAERQNVAAISAAYTAYVHSYRAWQAEMNKLGVAFGKNLSLGTPTPSWPGCPQPIPSHPQGGTPVFPYSPQPPSFPQPPCFPQPPSFPQPPSFPLPPVSSPQSQSFPSASSPAPQTPGPQPLIIHHAQMVQLGVNNHMWGHTGAQSSDDKTECSENPCMGPLTDQGEPLLETPE

Variants of: B1
Conditions: with cblb_mouse Cblb
Target sequence in this assay (Q3TTA7 whole entry): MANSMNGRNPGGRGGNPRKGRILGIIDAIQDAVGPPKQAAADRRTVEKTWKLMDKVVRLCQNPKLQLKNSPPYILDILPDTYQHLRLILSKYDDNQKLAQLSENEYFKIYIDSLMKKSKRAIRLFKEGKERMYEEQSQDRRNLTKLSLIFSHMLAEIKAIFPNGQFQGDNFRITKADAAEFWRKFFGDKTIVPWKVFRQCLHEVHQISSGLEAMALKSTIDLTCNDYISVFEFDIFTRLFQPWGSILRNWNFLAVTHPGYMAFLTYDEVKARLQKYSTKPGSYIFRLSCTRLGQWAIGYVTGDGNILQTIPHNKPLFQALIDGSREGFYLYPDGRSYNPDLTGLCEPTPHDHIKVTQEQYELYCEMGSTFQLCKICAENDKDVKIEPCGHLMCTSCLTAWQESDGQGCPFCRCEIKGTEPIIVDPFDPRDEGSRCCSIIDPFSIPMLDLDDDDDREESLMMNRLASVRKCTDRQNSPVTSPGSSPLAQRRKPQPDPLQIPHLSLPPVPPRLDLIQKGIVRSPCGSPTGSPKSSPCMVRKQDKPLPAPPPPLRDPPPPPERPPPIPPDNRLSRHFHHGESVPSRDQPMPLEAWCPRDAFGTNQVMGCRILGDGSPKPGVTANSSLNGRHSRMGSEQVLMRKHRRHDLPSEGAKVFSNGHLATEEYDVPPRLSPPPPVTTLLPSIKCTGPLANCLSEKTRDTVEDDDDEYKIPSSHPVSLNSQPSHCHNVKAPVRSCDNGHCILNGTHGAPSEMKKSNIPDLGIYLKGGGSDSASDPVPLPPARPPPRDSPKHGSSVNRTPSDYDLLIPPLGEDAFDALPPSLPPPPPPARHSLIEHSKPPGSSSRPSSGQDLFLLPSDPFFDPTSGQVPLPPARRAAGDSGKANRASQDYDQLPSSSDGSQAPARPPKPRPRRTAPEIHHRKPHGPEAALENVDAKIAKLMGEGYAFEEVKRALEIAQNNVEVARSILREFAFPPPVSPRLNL

effect of a mutation on the interaction	Variant
decreasing interaction	Y227F

Variants of: B2
Conditions: with cblb_mouse Cblb
Target sequence in this assay (Q3TTA7 whole entry): as above

effect of a mutation on the interaction	Variant
decreasing interaction	Y375F
